Substrate: NCCCNCCCCNCCCN
Experiment: purified protein, by the assay type
Conditions: other: compound as substrate, Hepes 50 mM, pH 7.5, 37 °C

B1: murine SMOX (Mus musculus) (protein)
chain: MQSCESSGDSADDPLSRGLRRRGQPRVVVIGAGLAGLAAARALLEQGFTDVTVLEASSHIGGRVQSVRLGDTTFELGATWIHGSHGNPIYQLAEANGLLEETTDGERSVGRISLYSKNGVACYLTNRGCRIPKDVVEEFSDLYNEVYNMTQEFFRHGKPVNAESQNSVGVFTREKVRNRIRDDPDDTEATKRLKLAMIQQYLKVESCESSSHSIDEVSLSAFGEWTEIPGAHHIIPSGFMRVVELLAEGIPPHVIQLGKPVRCIHWDQASAHPRGPEIEPRGEGDHNHDTGEGGQSGENPQQGRWDEDEPWPVVVECEDCEVIPADHVIVTVSLGVLKRQYTSFFRPCLPTEKVAAIHRLGIGTTDKIFLEFEEPFWGPECNSLQFVWEDEAESCTLTYPPELWYRKICGFDVLYPPERYGHVLSGWICGEEALVMERCDDEAVAEICTEMLRQFTGNPNIPKPRRILRSAWGSNPYFRGSYSYTQVGSSGADVEKLAKPLPYTESSKTAPMQVLFSGEATHRKYYSTTHGALLSGQREAARLIEMYRDLFQQGP
Km: 495 µM

Reference: publication PMC6407594
